Positions count from the first letter of the chain named. Names and notes keep the numbering of the source.
T1: extracellular domain of canine IL-31RA fused to murine IgG2A Fc (canine)
T1 construct: also called Canine IL-31RA-murine IgG2A Fc; Canine IL-31RA-mFc
T1 chain: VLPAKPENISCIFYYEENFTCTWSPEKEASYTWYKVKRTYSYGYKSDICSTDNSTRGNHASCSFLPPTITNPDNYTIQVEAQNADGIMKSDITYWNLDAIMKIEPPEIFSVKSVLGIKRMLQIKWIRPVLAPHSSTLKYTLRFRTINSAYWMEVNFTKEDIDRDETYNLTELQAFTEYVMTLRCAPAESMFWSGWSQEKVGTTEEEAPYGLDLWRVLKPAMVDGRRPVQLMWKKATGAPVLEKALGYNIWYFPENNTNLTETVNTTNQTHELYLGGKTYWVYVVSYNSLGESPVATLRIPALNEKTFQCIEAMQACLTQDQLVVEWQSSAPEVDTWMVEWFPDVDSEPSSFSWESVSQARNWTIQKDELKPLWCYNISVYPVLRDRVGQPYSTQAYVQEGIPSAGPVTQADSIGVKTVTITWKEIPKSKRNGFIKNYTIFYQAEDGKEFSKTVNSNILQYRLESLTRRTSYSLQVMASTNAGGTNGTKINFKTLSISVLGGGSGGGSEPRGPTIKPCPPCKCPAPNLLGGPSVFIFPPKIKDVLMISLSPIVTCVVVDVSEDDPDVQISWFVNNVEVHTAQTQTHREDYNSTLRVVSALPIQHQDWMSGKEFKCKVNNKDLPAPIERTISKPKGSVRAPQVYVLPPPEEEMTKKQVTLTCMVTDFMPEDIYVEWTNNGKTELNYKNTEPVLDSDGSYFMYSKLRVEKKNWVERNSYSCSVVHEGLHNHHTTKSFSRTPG

B1: 109-49 heavy chain M118I variant with wild-type light chain (antibody, V domains shown)
VH: EVQLVESGGDLVKPGGSLRLSCVASGFTFDDYGMSWVRQAPGKGLQWVSGINWAGGTIGYADAVKGRFTISRDNARNTVYLQMNSLRAEDTAVYYCARESPLRLGDLGGDYFYYYYYIDVWGQGTLVTVSS
VL: EVVMIQTPLSLSVSPGEPASISCRASQSVSSRYLVWYLQKPGQSPQLLIYGTSSRATGVSDRFSGSGSGTDFTLRISRVEAEDVGVYYCQQYDNSPRTFGQGTKVEIKR
notes: Canine IgGB/kappa; signal peptides left out; also called M118I / Wild-type
B2: 109-49 heavy chain M118I variant with light chain N94Q variant (antibody, V domains shown)
VH: B1 VH
VL: B1 VL with N94Q
notes: Canine IgGB/kappa; signal peptides left out; also called M118I / N94Q
B3: 109-49 heavy chain M118L variant with wild-type light chain (antibody, V domains shown)
VH: B1 VH with I118L
VL: B1 VL
notes: Canine IgGB/kappa; signal peptides left out; also called M118L / Wild-type
B4: 109-49 heavy chain W53F + M118I variant with light chain N94Q variant (antibody, V domains shown)
VH: B1 VH with W53F
VL: B1 VL with N94Q
notes: Canine IgGB/kappa; signal peptides left out; also called W53F-M118I / N94Q
B5: 109-49 heavy chain W53F + M118I variant with light chain S95A variant (antibody, V domains shown)
VH: B1 VH with W53F
VL: B1 VL with S95A
notes: Canine IgGB/kappa; signal peptides left out; also called W53F-M118I / S95A
B6: 109-49 heavy chain W53F variant with wild-type light chain (antibody, V domains shown)
VH: B1 VH with W53F, I118M
VL: B1 VL
notes: Canine IgGB/kappa; signal peptides left out; also called W53F / Wild-type
B7: 109-49 heavy chain W53Y variant with wild-type light chain (antibody, V domains shown)
VH: B1 VH with W53Y, I118M
VL: B1 VL
notes: Canine IgGB/kappa; signal peptides left out; also called W53Y / Wild-type
B8: 109-49 wild-type heavy chain with light chain N94Q variant (antibody, V domains shown)
VH: B1 VH with I118M
VL: B1 VL with N94Q
notes: Canine IgGB/kappa; signal peptides left out; also called Wild-type / N94Q
B9: 109-49 wild-type heavy chain with light chain S95A variant (antibody, V domains shown)
VH: B1 VH with I118M
VL: B1 VL with S95A
notes: Canine IgGB/kappa; signal peptides left out; also called Wild-type / S95A
B10: caninized antibody clone 109-49 (antibody, V domains shown)
VH: B1 VH with I118M
VL: B1 VL
notes: Canine IgGB and canine kappa constant domains
B11: 186-95 heavy chain M106L variant with wild-type light chain (antibody, V domains shown)
VH: EVQLVESGGDLVKPGGSLRLSCVASGFTFSSYAMSWVRQAPGKGLQWVSAISGSGNSTYYADAVKGRFTISRDNAKNTLYLQMNSLRAEDTAVYYCATQVVYYFKLDVWGQGTLVTVSS
VL: EIVMTQSPGSLAGSAGESVSINCKSSQSVSSNLAWYQQKPGERPKLLIYGASTRASGVPARFSSSGSGTDFTLTINNLQAEDVGDYYCQQYYNWPPFTFGQGTKLEIKR
notes: Canine IgGB/kappa; signal peptides left out; also called M106L / Wild-type
B12: 186-95 heavy chain M106I variant with wild-type light chain (antibody, V domains shown)
VH: B11 VH with L106I
VL: B11 VL
notes: Canine IgGB/kappa; signal peptides left out; also called M106I / Wild-type
B13: 186-95 heavy chain N56Q + M106L variant with light chain W94Y variant (antibody, V domains shown)
VH: B11 VH with N56Q
VL: B11 VL with W94Y
notes: Canine IgGB/kappa; signal peptides left out; also called N56Q-M106L / W94Y
B14: 186-95 heavy chain N56Q variant with wild-type light chain (antibody, V domains shown)
VH: B11 VH with N56Q, L106M
VL: B11 VL
notes: Canine IgGB/kappa; signal peptides left out; also called N56Q / Wild-type
B15: 186-95 heavy chain S57A variant with wild-type light chain (antibody, V domains shown)
VH: B11 VH with S57A, L106M
VL: B11 VL
notes: Canine IgGB/kappa; signal peptides left out; also called S57A / Wild-type
B16: 186-95 wild-type heavy chain with light chain W94F variant (antibody, V domains shown)
VH: B11 VH with L106M
VL: B11 VL with W94F
notes: Canine IgGB/kappa; signal peptides left out; also called Wild-type / W94F

Biological target: T1, extracellular domain of canine IL-31RA …
Assay: SPR Biacore T200, antibody captured on anti-dog H+L chip, canine IL-31RA-mFc as analyte; relative affinity scale: *** 3 pM-100 pM, ** 101 pM-1 nM, * 1.1 nM-20 nM (avidity)
Protocol: (§1) The different heavy and light chain combinations were co-transfected into ExpiCHO cells using the ExpiCHO transfection kit (ThermoFisher; Cat. #A29133). Seven days following the transient transfection, the IgG in the conditioned medium was purified using MabSelect SuRe chromatography. The antibodies were buffer-exchanged into PBS, pH 7.4. The relative affinity of the variants was determined by SPR on a Biacore T200. The antibody was captured using a CM5 Series S chip amine coupled with an anti-dog H+L antibody (Jackson Immunoresearch). Canine IL-31RA-mFc (100 nM, 50 nM, 25 nM, 12.5 nM, 6.25 nM, 3.625 nM) solutions in 1×HBS-EP+ was flown over the sensor chip for a contact time of 120 s and a dissociation time of 600 s at a flow rate of […]. Double reference-subtracted sensorgrams were fitted to a 1:1 binding model using Biacore T200 Evaluation software. The canine IL-31RA antigen was both a dimer and aggregated so there were avidity effects with the measured affinities. […] Following the initial results with the single variants, a heavy chain containing the W53F variant and the M118I variant was synthesized and subcloned into pcDNA 3.4 (SEQ ID NO:18). The same methods as described above for expression and purification of the variant along with measuring the relative affinity were used to determine the relative affinity of the W53F/M118I heavy chain variant combined with the S95A light chain and the N94Q light chain variants.

Binder | relative affinity (apparent KD by SPR) [nM]
B1 | 0.003 to 0.1
B2 | 0.003 to 0.1
B3 | 1.1 to 20
B4 | 1.1 to 20
B5 | 1.1 to 20
B6 | 1.1 to 20
B7 | 1.1 to 20
B8 | 0.101 to 1
B9 | 0.003 to 0.1
B10 | 0.003 to 0.1

Biological target: T1, extracellular domain of canine IL-31RA …
Assay: as above
Remark: another data set of the same source
Protocol: as §1, with “Seven” for “The different heavy and light chain combinations were co-transfected into ExpiCHO cells using the ExpiCHO transfection kit (ThermoFisher; Cat. #A29133). Seven”

Binder | binding result
B11 | binds
B12 | binds
B13 | binds
B14 | binds
B15 | binds
B16 | binds
